± gives the uncertainty stated by the source.
Experiment: self-splicing fitness, log relative to wild type (ln ratio); higher = more splicing; Tetrahymena group I intron in knt gene, E. coli kanamycin selection, DiMSum; sequences stand for … in CUCUCU…GGAGGGAAAAGUUAUCAGGCAUGCACCUGGUAGCUAGUCUUUAAACCAAUAGAUUGCAUCGGUUUAAAAGGCAAGACCGUCAAAUUGCGGGAAAGGGGUCAACAGCCGUUCAGUACCAAGUCUCAGGGGAAACUUUGAGAUGGCCUUGCAAAGGGUAUGGUAAUAAGCUGACGGACAUGGUCCUAACCACGCAGCCAAGUCCUAAGUCAACAGAUCUUCUGUUGAUAUGGAUGCAGUUCACAGACUAAAUGUCGGUCGGGGAAGAUGUAUUCUUCUCAUAAGAUAUAGUCGGACCUCUCCUUAAUGGGAGCUAGCGGAUGAAGUGAUGCAACACUGGAGCCGCUGGGAACUAAUUUGUAUGCGAAAGUAUAUUGAUUAGUUUUGGAGUACUCGUGGUCG
Procedure, shortened: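 DiMSum derived fitness as the error-weighted combination of fold changes across replicates, kanamycin versus no kanamycin, normalised to wild type. E. coli BL21(DE3) held the library, which randomised all eight P1ex-region intron nucleotides within the knt kanamycin-resistance gene on pET-22b(+). Six replicate transformations grew overnight at 37°C or 30°C on LB agar with or without 25 μg/mL kanamycin, also containing 100 μg/mL carbenicillin, 50 μM IPTG and 0.2% rhamnose, and pooled colonies were amplicon-sequenced on an Illumina HiSeq 2500.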

Row | Sequence | self-splicing fitness (ln) (30 °C) | self-splicing fitness (ln) (37 °C)
1 | AGGCAGCAAUAUUACGUAUG | -3.27 ± 0.27 | -1.53 ± 0.15
2 | CGAAAGCAAUAUUACGUCGG | -0.496 ± 0.06 | -0.0301 ± 0.071
3 | UUGCAGCAAUAUUACGUUAC | -2.77 ± 0.15 | -2.18 ± 0.17
4 | GGGGAGCAAUAUUACGGGCA | -2.87 ± 0.34 | -1.47 ± 0.26
5 | GUGUAGCAAUAUUACGUCUU | 0.202 ± 0.18 | -0.00398 ± 0.18
6 | CUGAAGCAAUAUUACGACAG | -0.755 ± 0.063 | 0.511 ± 0.11
7 | AUGUAGCAAUAUUACGUGGU |  | -1.53 ± 0.17
8 | CUCUAGCAAUAUUACGAACA |  | -2.98 ± 0.34
9 | UCAUAGCAAUAUUACGCGAU | -1.9 ± 0.22 | 
10 | CGACAGCAAUAUUACGAUGA | -0.751 ± 0.075 | -0.41 ± 0.075
11 | ACGCAGCAAUAUUACGCGCA | -0.215 ± 0.096 | 0.231 ± 0.11
12 | CCCUAGCAAUAUUACGCCCU | -3.61 ± 0.35 | -1.54 ± 0.23
13 | UAAGAGCAAUAUUACGAAGU | -3.61 ± 0.31 | -1.85 ± 0.41
14 | GGUGAGCAAUAUUACGCCAC | -1.24 ± 0.44 | 
15 | AAGCAGCAAUAUUACGCAAG | -2.43 ± 0.19 | -0.222 ± 0.098
16 | GGUUAGCAAUAUUACGUGCC | -2 ± 0.46 | 
17 | CGUGAGCAAUAUUACGGAGA | -3.88 ± 0.33 | -1.57 ± 0.25
18 | AAUUAGCAAUAUUACGCUUU | -3.27 ± 0.23 | -1.01 ± 0.14
19 | UAACAGCAAUAUUACGAACC | -2.12 ± 0.17 | -1.73 ± 0.24
20 | GUUGAGCAAUAUUACGGCAC | -0.787 ± 0.17 | -0.486 ± 0.2
21 | GUGUAGCAAUAUUACGCAGG |  | -2.3 ± 0.32
22 | UAAGAGCAAUAUUACGAGCA | -3.18 ± 0.29 | -0.84 ± 0.14
23 | AGUCAGCAAUAUUACGUAGG | -3.1 ± 0.12 | -1.64 ± 0.14
24 | CCUUAGCAAUAUUACGUGUC | -2.66 ± 0.26 | -0.776 ± 0.21
25 | AGAGAGCAAUAUUACGUGCA | -3.36 ± 0.26 | -2.34 ± 0.24

Row | Sequence | self-splicing fitness (ln) (30 °C) | self-splicing fitness (ln) (37 °C)
26 | GCGAAGCAAUAUUACGUAAU | -1.22 ± 0.097 | -1.07 ± 0.11
27 | GCAGAGCAAUAUUACGAAGG | -4.31 ± 0.46 | -1.42 ± 0.26
28 | UGGAAGCAAUAUUACGGGGU | -3.12 ± 0.31 | -1.99 ± 0.35
29 | GACUAGCAAUAUUACGACAU | -0.511 ± 0.012 | -0.122 ± 0.032
30 | GCUGAGCAAUAUUACGUACA | -2.45 ± 0.24 | -2.88 ± 0.28
31 | CGAAAGCAAUAUUACGCUGG | -1.66 ± 0.11 | -0.903 ± 0.14
32 | AACCAGCAAUAUUACGAUAC | -2.38 ± 0.084 | -1.39 ± 0.11
33 | AAGAAGCAAUAUUACGAUAA | -1.11 ± 0.12 | -1.07 ± 0.15
34 | AAGCAGCAAUAUUACGAAAC | -3.7 ± 0.4 | -1.8 ± 0.38
35 | GGCCAGCAAUAUUACGCUAG | -3.21 ± 0.21 | -2.47 ± 0.3
36 | AGCCAGCAAUAUUACGGACA | -0.814 ± 0.1 | -0.491 ± 0.13
37 | GCGUAGCAAUAUUACGCGAG |  | -2.54 ± 0.27
38 | UGCAAGCAAUAUUACGUUGC | -3.3 ± 0.31 | -3.31 ± 0.39
39 | UCCUAGCAAUAUUACGGGUA | -0.468 ± 0.088 | -0.134 ± 0.12
40 | CAUGAGCAAUAUUACGUAGU | -5.58 ± 0.41 | -3.3 ± 0.19
41 | CUAUAGCAAUAUUACGGCAC | -2.18 ± 0.24 | -1.09 ± 0.42
42 | GAGAAGCAAUAUUACGGUCC | -2.14 ± 0.24 | -1.06 ± 0.21
43 | GCCGAGCAAUAUUACGCAAG | -2.91 ± 0.44 | -1.25 ± 0.36
44 | ACGCAGCAAUAUUACGAAUC | -4.07 ± 0.34 | -2.11 ± 0.22
45 | GUCAAGCAAUAUUACGGGGG | -4.02 ± 0.46 | -2.86 ± 0.34
46 | ACGGAGCAAUAUUACGCCUA | -2.13 ± 0.28 | -1.6 ± 0.27
47 | GGAGAGCAAUAUUACGACGC | -0.0524 ± 0.081 | -0.0426 ± 0.092
48 | ACCCAGCAAUAUUACGUAUG | -3.89 ± 0.14 | -1.77 ± 0.11
49 | CAGCAGCAAUAUUACGAGCA | -2.5 ± 0.12 | -1.04 ± 0.093
50 | CUGAAGCAAUAUUACGGUCG | 0.651 ± 0.072 | -0.32 ± 0.082

Row | Sequence | self-splicing fitness (ln) (30 °C) | self-splicing fitness (ln) (37 °C)
51 | GGCGAGCAAUAUUACGCCGG | -3.4 ± 0.35 | -0.739 ± 0.33
52 | UUCUAGCAAUAUUACGUAAA | -1.56 ± 0.26 | -0.54 ± 0.23
53 | CAUAAGCAAUAUUACGCCAA | -2.33 ± 0.17 | -2.69 ± 0.32
54 | UGCCAGCAAUAUUACGCUUU | -2.03 ± 0.079 | -1.76 ± 0.074
55 | AACUAGCAAUAUUACGGACA | -0.804 ± 0.15 | -0.48 ± 0.13
56 | ACGCAGCAAUAUUACGUUCC | -1.71 ± 0.11 | -2.26 ± 0.19
57 | GCGAAGCAAUAUUACGGACU | -0.302 ± 0.12 | 0.296 ± 0.13
58 | UUCGAGCAAUAUUACGGGUG | -1.78 ± 0.074 | -1.42 ± 0.086
59 | AAGAAGCAAUAUUACGUUUA | -1.62 ± 0.074 | -1.01 ± 0.077
60 | ACAAAGCAAUAUUACGACAA | -0.955 ± 0.15 | -0.443 ± 0.13
61 | CACAAGCAAUAUUACGGGCU | -4.15 ± 0.24 | -2.29 ± 0.17
62 | CCUGAGCAAUAUUACGGGAC | -4.19 ± 0.46 | -2.08 ± 0.27
63 | CGAAAGCAAUAUUACGACAU | -2.721 ± 0.017 | -1.41 ± 0.034
64 | ACCAAGCAAUAUUACGUGUG | -2.06 ± 0.048 | -1.1 ± 0.064
65 | GGUCAGCAAUAUUACGCAAG | -1.92 ± 0.17 | -0.453 ± 0.16
66 | UGAGAGCAAUAUUACGGGAG | -3.96 ± 0.29 | -1.93 ± 0.21
67 | UGCAAGCAAUAUUACGAAUC | -3.56 ± 0.29 | 
68 | CUUAAGCAAUAUUACGUUUU | -4.2 ± 0.25 | -2.07 ± 0.21
69 | AAAGAGCAAUAUUACGGAUU | -0.754 ± 0.18 | -1.45 ± 0.17
70 | UCCAAGCAAUAUUACGCAGC | -2.73 ± 0.21 | -2.89 ± 0.32
71 | GACGAGCAAUAUUACGCAAA | -3.39 ± 0.27 | -1.96 ± 0.22
72 | AUAUAGCAAUAUUACGAGUA | -2.18 ± 0.2 | -1.04 ± 0.16
73 | CAACAGCAAUAUUACGAAGG | -0.969 ± 0.059 | -0.0092 ± 0.078
74 | GAACAGCAAUAUUACGAUCA | -0.605 ± 0.089 | -0.214 ± 0.11
75 | GUGCAGCAAUAUUACGGUCU | -0.887 ± 0.081 | 0.217 ± 0.093

Row | Sequence | self-splicing fitness (ln) (30 °C) | self-splicing fitness (ln) (37 °C)
76 | CGUCAGCAAUAUUACGGGGU | -3.29 ± 0.11 | -2.33 ± 0.14
77 | GUGAAGCAAUAUUACGUCUC | -0.941 ± 0.11 | -0.553 ± 0.12
78 | UGUAAGCAAUAUUACGUCCU | -0.564 ± 0.074 | 0.215 ± 0.079
79 | CUUAAGCAAUAUUACGGAUG | -0.76 ± 0.056 | -0.0373 ± 0.077
80 | UAUUAGCAAUAUUACGGACU | -2.33 ± 0.31 | -1.47 ± 0.4
81 | GACAAGCAAUAUUACGCCGU | -2.93 ± 0.14 | -0.97 ± 0.12
82 | UACCAGCAAUAUUACGACGG | -0.833 ± 0.06 | -0.237 ± 0.094
83 | GACGAGCAAUAUUACGUCCA | -2.11 ± 0.32 | -2.68 ± 0.31
84 | UUUUAGCAAUAUUACGUAUG | -2.01 ± 0.19 | -0.735 ± 0.2
85 | GCGUAGCAAUAUUACGAGGG | -3.37 ± 0.16 | -1.96 ± 0.17
86 | CCUAAGCAAUAUUACGGCAU | -3.48 ± 0.22 | -1.98 ± 0.19
87 | AGCAAGCAAUAUUACGCCCG | -0.279 ± 0.08 | -0.0697 ± 0.11
88 | GCCUAGCAAUAUUACGGAGU | -0.965 ± 0.085 | -0.198 ± 0.094
89 | AUUGAGCAAUAUUACGACAG | -3.48 ± 0.26 | -2.18 ± 0.21
90 | AGCAAGCAAUAUUACGUCUC | -2.61 ± 0.29 | 
91 | GUGUAGCAAUAUUACGGGAG | -3.55 ± 0.2 | -2.88 ± 0.18
92 | UAGAAGCAAUAUUACGAUCU | -1.11 ± 0.12 | -0.261 ± 0.16
93 | GGCCAGCAAUAUUACGCUCA | -0.637 ± 0.13 | -0.183 ± 0.13
94 | UGUCAGCAAUAUUACGAGGC | -1.97 ± 0.26 | -3.1 ± 0.32
95 | UUUCAGCAAUAUUACGGAGA | -1.26 ± 0.14 | -1.13 ± 0.22
96 | CGGAAGCAAUAUUACGCCCG | -2.86 ± 0.36 | 
97 | AGUCAGCAAUAUUACGACAC | -0.0897 ± 0.065 | -0.358 ± 0.084
98 | ACGUAGCAAUAUUACGCUGA | -1.81 ± 0.089 | -0.483 ± 0.085

Source: the supplement of paper PMC7877785
